Results as given in patent publication US6645738B1, “DNA molecules encoding the melanocortin 5 receptor protein from rhesus monkey” (Merck & Co., Inc., priority 1998, dated 2003).
Read-outs that look alike come from different tables or passages of the source. Each block holds one molecule with its values, some of them ahead of it.

Assays:
rhesus MC-5R [1] = type: cell-based, rhesus monkey (Macaca mulatta); conditions: for EC50: read-out: EC50, nM rhMC-5R
Experimental: (§1) To determine the functional activation of receptors, stably transfected CHO cells were washed once with PBS without Ca^++/Mg^++, dissociated by non-enzymatic dissociation medium (Specialty Media, Inc.) at 37° C. for 10 min. Dissociated cells were resuspended in EBSS buffer containing 25 mM Hepes, 5 mM MgCl2, 0.1% BSA and 50 mM IBMX and incubated with agonist at room temperature for 45 min. The agonist activation was terminated by boiling for 4 min.
(§2) A cDNA encoding human MC-5R subcloned into the pIRES1neo expression vector (Clontech) and stably transfected into CHO cells was used as a reference for the pharmacological properties of the rhesus MC-5R. Single clones were used in all pharmacological studies as described above. The functional properties of rhMC-5R were determined by heterologous expression in CHO cells.

human MC-5R [2] = target: T1, human MC-5R (Homo sapiens, UniProt P33032); type: binding
T1 construct: expressed in transfected cells
T1 sequence (P33032 whole entry): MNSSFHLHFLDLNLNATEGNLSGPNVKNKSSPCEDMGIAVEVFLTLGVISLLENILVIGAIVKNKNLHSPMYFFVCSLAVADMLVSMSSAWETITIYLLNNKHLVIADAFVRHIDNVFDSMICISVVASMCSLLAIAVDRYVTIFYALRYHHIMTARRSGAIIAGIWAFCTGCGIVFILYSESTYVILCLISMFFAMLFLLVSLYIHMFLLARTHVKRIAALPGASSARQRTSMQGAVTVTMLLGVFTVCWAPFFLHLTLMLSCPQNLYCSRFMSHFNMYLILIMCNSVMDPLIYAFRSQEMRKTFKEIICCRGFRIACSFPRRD
Experimental: (§3) The receptor plasmid was transfected into CHO dhfr- cells using lipofectamin (GIBCO). Transfected cells were selected by G418 for at least 2-3 weeks before binding and functional assays were performed. […] After incubation at room temperature for 3 hours, wells were washed 3 times by PBS, lysed in 0.5 ml of 0.05% SDS and counted by a gamma counter.
(§4) Single clones were used in all pharmacological studies as described above.
as §2

[3] = target: T2, human melanocortin 5 receptor (human, UniProt P33032 1-325); assay: cell-based or functional assay
[4] = target: rhesus monkey (Macaca mulatta) melanocortin-5 receptor (rhesus monkey (Macaca mulatta)); assay: cell-based or functional assay
[5] = target: T2, human melanocortin 5 receptor; assay: displacement of 0.1 nM 125I-NDP-α-MSH from CHO cells stably expressing hMC-5R
[6] = target: rhesus monkey (Macaca mulatta) melanocortin-5 receptor (rhesus monkey (Macaca mulatta)); assay: displacement of 0.1 nM 125I-NDP-α-MSH from CHO cells stably expressing rhMC-5R
rhesus MC-5R [7] = type: binding, rhesus monkey (Macaca mulatta); conditions: read-out: IC50, nM rhMC-5R
Experimental: as §3, §2

human MC-5R [8] = target: T1, human MC-5R; type: cell-based
Experimental: as §1, §4, §2

[9] = target: T3, rhesus monkey (Macaca mulatta) melanocortin-5 receptor (rhesus monkey (Macaca mulatta), UniProt P33032 1-325 (human entry)); assay: cell-based or functional assay
T3 chain: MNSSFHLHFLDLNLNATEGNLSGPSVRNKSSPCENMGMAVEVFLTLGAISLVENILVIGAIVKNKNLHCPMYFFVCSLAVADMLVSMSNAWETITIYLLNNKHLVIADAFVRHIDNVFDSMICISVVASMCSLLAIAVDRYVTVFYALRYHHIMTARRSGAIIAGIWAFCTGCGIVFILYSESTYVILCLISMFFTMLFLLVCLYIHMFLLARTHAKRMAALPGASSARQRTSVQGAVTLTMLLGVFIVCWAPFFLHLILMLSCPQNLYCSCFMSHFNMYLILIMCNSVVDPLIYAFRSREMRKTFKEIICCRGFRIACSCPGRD

[10] = target: T3, rhesus monkey (Macaca mulatta) …; assay: displacement of 0.1 nM 125I-NDP-α-MSH from CHO cells stably expressing rhMC-5R
Experimental: as §3, with “dhfr-cells” for “dhfr- cells”, “2–3” for “2-3”

Molecule: α-MSH
Maximal response (%) rhMC-5R (rhesus MC-5R [1]): 100%
EC50 (rhesus MC-5R [1]): 0.2 ± 0.1 nM
Apparent binding affinity for the human MC-5R (in words) (human MC-5R [2]): very low apparent binding affinity

EC50, nM (cAMP synthesis in CHO cells) [3]: 0.03 nM
Maximal response (%) [3]: 100%
EC50, nM (cAMP synthesis in CHO cells) [4]: 0.007 nM
Maximal response (%) [4]: 100%
IC50 [5]: 0.4 nM
IC50 [6]: 0.02 nM
Molecule: Shu-9119 (peptide)

Molecule: human ACTH(1-24) [ACTH1-24]
Maximal response (%) rhMC-5R (rhesus MC-5R [1]; cAMP response, CHO cells): 100%
EC50 (rhesus MC-5R [1]; intracellular cAMP, CHO cells, agonist 45 min at room temperature): 0.2 ± 0.1 nM
IC50 (rhesus MC-5R [7]): 15 ± 1 nM
Maximal response (%) hMC-5R (human MC-5R [8]; cAMP response, CHO cells): 100%

EC50, nM (cAMP synthesis in CHO cells) [3]: 0.8 nM
Maximal response (%) [3]: 85%
EC50, nM (cAMP synthesis in CHO cells) [4]: 0.02 nM
Maximal response (%) [4]: 100%
IC50 [6]: 5 nM
Molecule: MT-II (peptide)

Molecule: MT-II [MTII]
Maximal response (%) rhMC-5R (rhesus MC-5R [1]): 100%
EC50 (rhesus MC-5R [1]): 0.02 ± 0.01 nM
IC50 (rhesus MC-5R [7]): 5 ± 0.2 nM
Agonist character at human MC-5R (in words) (human MC-5R [8]): partial agonists
Maximal response (%) hMC-5R (human MC-5R [8]): 85%

Molecule: γ2-MSH
Maximal response (%) rhMC-5R (rhesus MC-5R [1]): 100%
Agonist character at human MC-5R (in words) (human MC-5R [8]): partial agonists
Maximal response (%) hMC-5R (human MC-5R [8]): 80%

EC50, nM (cAMP synthesis in CHO cells) [3]: 0.3 nM
Maximal response (%) [3]: 100%
EC50, nM (cAMP synthesis in CHO cells) [4]: 0.02 nM
Maximal response (%) [4]: 100%
IC50 [5]: 0.5 nM
IC50 [6]: 0.2 nM
Molecule: NDP-α-MSH (peptide)

Molecule: NDP-α-MSH
Maximal response (%) rhMC-5R (rhesus MC-5R [1]): 100%
EC50 (rhesus MC-5R [1]): 0.02 ± 0.01 nM
IC50 (rhesus MC-5R [7]): 0.2 ± 0.1 nM

EC50, nM (cAMP synthesis in CHO cells) [9]: 0.2 nM
Maximal response (%) [9]: 100%
EC50, nM (cAMP synthesis in CHO cells) [3]: 5 nM
Maximal response (%) [3]: 100%
IC50 [10]: 15 nM
B1: human ACTH(1-24) (peptide, UniProt P01189 138-161, looked up)
peptide: SYSMEHFRWGKPVGKKRRPVKVYP
notes: range 138-161
